Test results: IntAct's records for PubMed 11454741

B1: Synaptotagmin-1 (Rattus norvegicus (Rat)), P21707 (parent)
chain: MVSASHPEALAAPVTTVATLVPHNATEPASPGEGKEDAFSKLKQKFMNELHKIPLPPWALIAIAIVAVLLVVTCCFCVCKKCLFKKKNKKKGKEKGGKNAINMKDVKDLGKTMKDQALKDDDAETGLTDGEEKEEPKEEEKLGKLQYSLDYDFQNNQLLVGIIQAAELPALDMGGTSDPYVKVFLLPDKKKKFETKVHRKTLNPVFNEQFTFKVPYSELGGKTLVMAVYDFDRFSKHDIIGEFKVPMNTVDFGHVTEEWRDLQSAEKEEQEKLGDICFSLRYVPTAGKLTVVILEAKNLKKMDVGGLSDPYVKIHLMQNGKRLKKKKTTIKKNTLNPYYNESFSFEVPFEQIQKVQVVVTVLDYDKIGKNDAIGKVFVGYNSTGAELRHWSDMLANPRRPIAQWHTLQVEEEVDAMLAVKK
partner: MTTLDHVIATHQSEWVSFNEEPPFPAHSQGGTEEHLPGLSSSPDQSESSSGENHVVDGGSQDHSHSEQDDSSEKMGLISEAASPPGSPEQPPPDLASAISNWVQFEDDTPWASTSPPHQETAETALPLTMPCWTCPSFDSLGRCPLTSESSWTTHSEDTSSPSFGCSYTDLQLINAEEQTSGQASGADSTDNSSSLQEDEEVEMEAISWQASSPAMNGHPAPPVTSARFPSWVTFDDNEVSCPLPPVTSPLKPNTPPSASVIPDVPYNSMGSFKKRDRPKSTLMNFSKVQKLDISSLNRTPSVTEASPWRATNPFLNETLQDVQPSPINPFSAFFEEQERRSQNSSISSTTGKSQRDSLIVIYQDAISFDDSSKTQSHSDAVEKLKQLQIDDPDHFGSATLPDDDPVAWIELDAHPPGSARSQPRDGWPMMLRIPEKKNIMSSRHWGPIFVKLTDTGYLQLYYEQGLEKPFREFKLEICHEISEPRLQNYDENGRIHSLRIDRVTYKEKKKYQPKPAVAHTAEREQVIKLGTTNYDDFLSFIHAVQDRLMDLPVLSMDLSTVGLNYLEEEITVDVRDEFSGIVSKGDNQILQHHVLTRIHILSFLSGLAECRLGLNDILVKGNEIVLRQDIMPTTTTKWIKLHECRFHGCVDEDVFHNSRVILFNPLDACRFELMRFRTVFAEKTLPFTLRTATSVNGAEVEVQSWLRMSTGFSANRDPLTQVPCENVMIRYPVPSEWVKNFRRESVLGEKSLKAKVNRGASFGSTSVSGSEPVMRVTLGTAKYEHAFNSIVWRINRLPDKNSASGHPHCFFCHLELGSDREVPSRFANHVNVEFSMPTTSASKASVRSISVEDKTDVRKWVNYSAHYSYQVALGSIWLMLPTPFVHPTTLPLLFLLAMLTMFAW
B2: Stonin-2 (Homo sapiens), Q8WXE9 (parent)
chain: B1 partner

Variants of: B1
Conditions: with ston2_human STON2, Q8WXE9
With MVSASHPEALAAPVTTVATLVPHNATEPASPGEGKEDAFSKLKQKFMNELHKIPLPPWALIAIAIVAVLLVVTCCFCVCKKCLFKKKNKKKGKEKGGKNAINMKDVKDLGKTMKDQALKDDDAETGLTDGEEKEEPKEEEKLGKLQYSLDYDFQNNQLLVGIIQAAELPALDMGGTSDPYVKVFLLPDAAKKFETKVHRKTLNPVFNEQFTFKVPYSELGGKTLVMAVYDFDRFSKHDIIGEFKVPMNTVDFGHVTEEWRDLQSAEKEEQEKLGDICFSLRYVPTAGKLTVVILEAKNLKKMDVGGLSDPYVKIHLMQNGKRLKKKKTTIKKNTLNPYYNESFSFEVPFEQIQKVQVVVTVLDYDKIGKNDAIGKVFVGYNSTGAELRHWSDMLANPRRPIAQWHTLQVEEEVDAMLAVKK [K189A;K190A] the “effect of a mutation on the interaction” value was “decreasing interaction”.

Variants of: B2
Conditions: with syt1_rat Syt1, P21707
W738A;K740A was tested, and the “effect of a mutation on the interaction” value was “decreasing interaction”.
